In patent US7648964B2, “Use of lacritin in promoting ocular cell survival” (University of Virginia Patent Foundation, priority 2004, dated 2010):

System: RelA (p65)
Assay: Nuclear translocation of NF-kappaB subunit RelA (p65) in HSG cells
Format: cell-based, human
Text: Nuclear translocation of this transcription factor has also been observed after lacritin treatment. Very little RelA was initially observed in the nuclear compartment in resting HSG cells.

B1: lacritin: recombinant human lacritin from E. coli; mature 119 residue fragment (SEQ ID NO:10) of native lacritin SEQ ID NO:4 (protein, listed as Homo sapiens)
chain: EDASSDSTGADPAQEAGTSKPNEEISGPAEPASPPETTTTAQETSAAAVQGTAKVTSSRQELNPLKSIVEKSILLTEQALAKAGKGMHGGVPGGKQFIENGSEFAQKLLKKFSLLKPWA
nuclear RelA at 4 hours (4 hours after initial contact with lacritin): high level of RelA was still observed
time of peak nuclear RelA (lacritin treatment): between 15 minutes to 1 hour
time to detectable RelA in nucleus (lacritin treatment): 1 min
